B1: CD25 L2F mutant (CD25-Fc) (Fc fusion)
chain: EFCDDDPPEIPHATFKAMAYKEGTMLNCECKRGFRRIKSGSLYMLCTGNSSHSSWDNQCQCTSSATRNTTKQVTPQPEEQKERKTTEMQSPMQPVDQASLPGHCREPPPWENEATERIYHFVVGQMVYYQCVQGYRALHRGPAESVCKMTHGKTRWTQPQLICTGEMETSQFPGEEKPQASPEGRPESETSCLVTTTDFQIQTEMAATMETSIFTTEYQ
notes: not shown: Fc part of CD25-Fc
B2: CD25 L2Y mutant (CD25-Fc) (Fc fusion)
chain: B1 chain with F2Y
notes: not shown: Fc part of CD25-Fc
B3: CD25 S41N mutant (CD25-Fc) (Fc fusion)
chain: B1 chain with F2L, S41N
notes: not shown: Fc part of CD25-Fc
B4: CD25 T47D mutant (CD25-Fc) (Fc fusion)
chain: B1 chain with F2L, T47D
notes: not shown: Fc part of CD25-Fc
B5: CD25 L42W mutant (CD25-Fc) (Fc fusion)
chain: B1 chain with F2L, L42W
notes: not shown: Fc part of CD25-Fc
B6: CD25 S41D mutant (CD25-Fc) (Fc fusion)
chain: B1 chain with F2L, S41D
notes: not shown: Fc part of CD25-Fc
B7: CD25 Y43R mutant (CD25-Fc) (Fc fusion)
chain: B1 chain with F2L, Y43R
notes: not shown: Fc part of CD25-Fc
B8: CD25 L42A mutant (CD25-Fc) (Fc fusion)
chain: B1 chain with F2L, L42A
notes: not shown: Fc part of CD25-Fc
B9: CD25 L42Y mutant (CD25-Fc) (Fc fusion)
chain: B1 chain with F2L, L42Y
notes: not shown: Fc part of CD25-Fc
B10: CD25 L42V mutant (CD25-Fc) (Fc fusion)
chain: B1 chain with F2L, L42V
notes: not shown: Fc part of CD25-Fc
B11: CD25 S41E mutant (CD25-Fc) (Fc fusion)
chain: B1 chain with F2L, S41E
notes: not shown: Fc part of CD25-Fc
B12: CD25 L42I mutant (CD25-Fc) (Fc fusion)
chain: B1 chain with F2L, L42I
notes: not shown: Fc part of CD25-Fc
B13: CD25 S41Q mutant (CD25-Fc) (Fc fusion)
chain: B1 chain with F2L, S41Q
notes: not shown: Fc part of CD25-Fc
B14: CD25 T47S mutant (CD25-Fc) (Fc fusion)
chain: B1 chain with F2L, T47S
notes: not shown: Fc part of CD25-Fc
B15: CD25 L2I mutant (CD25-Fc) (Fc fusion)
chain: B1 chain with F2I
notes: not shown: Fc part of CD25-Fc
B16: CD25 L42G mutant (CD25-Fc) (Fc fusion)
chain: B1 chain with F2L, L42G
notes: not shown: Fc part of CD25-Fc
B17: CD25 L42F mutant (CD25-Fc) (Fc fusion)
chain: B1 chain with F2L, L42F
notes: not shown: Fc part of CD25-Fc
B18: CD25 T47N mutant (CD25-Fc) (Fc fusion)
chain: B1 chain with F2L, T47N
notes: not shown: Fc part of CD25-Fc

Among the data in patent publication US20230056336A1 (KYVERNA THERAPEUTICS, published 2023) are Kd, koff and kon values, retold here.

Substitutions are numbered along the chain they refer to. Numbers in names are those of the source.

The term Kd denotes the constant that tells how readily two partners part at equilibrium. For orientation: koff means the first-order rate constant of dissociation. Low values mean slow dissociation, high ones fast dissociation. In general, kon refers to the rate constant with which the complex forms. Low values mean slow association, high ones fast association.

T1 sequence (VH, as listed by the source limits assumed, chain 1 of 2): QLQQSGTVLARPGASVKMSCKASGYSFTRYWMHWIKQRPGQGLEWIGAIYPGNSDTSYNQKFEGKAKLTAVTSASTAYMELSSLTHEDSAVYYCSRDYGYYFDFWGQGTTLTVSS
T1 sequence (VL, as listed by the source limits assumed, chain 2 of 2): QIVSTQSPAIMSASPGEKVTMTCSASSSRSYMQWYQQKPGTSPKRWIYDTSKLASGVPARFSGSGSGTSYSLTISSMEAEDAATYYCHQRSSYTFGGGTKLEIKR

This assay addresses T1, basiliximab fab.
T1 construct: The assay used a Fab of basiliximab; Chimeric antibody: human IgG1 constant, mouse variable domains
As to the kind of experiment: BLI; CD25-Fc on anti-hFc biosensor, basiliximab Fab in solution; global 1:1 fit.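 Further: biolayer interferometry signals normalized against a reference probe and smoothed with a Savitzky-Golay filter before the global fit.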 Background: In BLI a coated tip is dipped into the sample, and binding shifts an interference pattern.
Description: Briefly, binding affinity (KD) of CD25 mutants from Table 1 was measured using biolayer interferometry. […] Experimental data was normalized to a reference probe and high-frequency noise was removed by Savitzky-Golay filtering. On and off-rate constants were determined using a globally fitted 1:1 binding model.
Take B1: the Kd amounted to 1.07 nM, the koff was determined as 0.00252 s⁻¹ and the kon was determined as 2.36e+06 M⁻¹ s⁻¹.

For B2, the Kd stood at 1.51 nM, the koff worked out at 0.00263 s⁻¹ and the on-rate constant (kon) turned out to be 1.75e+06 M⁻¹ s⁻¹.

B3 yielded a Kd of 3.85 nM, an off-rate (koff) of 0.00707 s⁻¹ and a kon of 1.84e+06 M⁻¹ s⁻¹.

On to B4, for which the Kd came out at 3.66 nM, the off-rate (koff) was determined as 0.00787 s⁻¹ and the kon was determined as 2.15e+06 M⁻¹ s⁻¹.

Regarding B5, the Kd was 1.04 nM, the koff was 0.000201 s⁻¹ and the kon was 194000 M⁻¹ s⁻¹.

B6 displayed a dissociation constant (Kd) of 6.49 nM, a koff of 0.00708 s⁻¹ and a kon of 1.09e+06 M⁻¹ s⁻¹.

B7 came in with a Kd of 1.39 nM, a dissociation rate constant (koff) of 0.000399 s⁻¹ and a kon of 236000 M⁻¹ s⁻¹.

B8: binding was put at a Kd of 0.242 nM, the off-rate constant (koff) is 2.49e-05 s⁻¹ and the kon amounted to 103000 M⁻¹ s⁻¹.

The molecule B9 came in with a Kd of 1.75 nM, a koff of 0.000325 s⁻¹ and a kon of 186000 M⁻¹ s⁻¹.

The molecule B10 yielded a dissociation constant Kd of 3.93 nM, a dissociation rate constant (koff) of 0.000748 s⁻¹ and a kon of 190000 M⁻¹ s⁻¹.

The molecule B11 registered a dissociation constant Kd of 6.08 nM, a koff of 0.00719 s⁻¹ and an on-rate constant (kon) of 1.18e+06 M⁻¹ s⁻¹.

As to B12, the Kd came out at 23.3 nM, the koff stood at 0.0116 s⁻¹ and the kon is 499000 M⁻¹ s⁻¹.

In turn, B13 had a Kd of 5.25 nM, a koff of 0.00512 s⁻¹ and an on-rate constant (kon) of 975000 M⁻¹ s⁻¹.

B14: the Kd amounted to 4.49 nM, the koff stood at 0.00588 s⁻¹ and the kon was 1.31e+06 M⁻¹ s⁻¹.

With B15, binding was put at a Kd of 3.46 nM, the koff worked out at 0.000734 s⁻¹ and the kon was 212000 M⁻¹ s⁻¹.

As to B16, the dissociation constant Kd was determined as 1.14 nM, the koff amounted to 0.000152 s⁻¹ and the kon came to 133000 M⁻¹ s⁻¹.

As for B17, the Kd came out at 7.65 nM, the koff worked out at 0.000772 s⁻¹ and the kon was found to be 101000 M⁻¹ s⁻¹.

B18: binding was characterised by a dissociation constant (Kd) of 12.8 nM, the koff was 0.00776 s⁻¹ and the on-rate constant (kon) stood at 608000 M⁻¹ s⁻¹.
